Data from patent publication US20250002610A1 (Genmab, published 2025).

How the values were obtained:
[1] = target: T1, human FAPα (Fibroblast activation protein alpha), cell surface expressed (human, UniProt Q12884 1-760); experiment: flow cytometry, human lung fibroblasts, n = 1
T1 construct: Endogenous on human lung fibroblasts and CAFs
T1 sequence: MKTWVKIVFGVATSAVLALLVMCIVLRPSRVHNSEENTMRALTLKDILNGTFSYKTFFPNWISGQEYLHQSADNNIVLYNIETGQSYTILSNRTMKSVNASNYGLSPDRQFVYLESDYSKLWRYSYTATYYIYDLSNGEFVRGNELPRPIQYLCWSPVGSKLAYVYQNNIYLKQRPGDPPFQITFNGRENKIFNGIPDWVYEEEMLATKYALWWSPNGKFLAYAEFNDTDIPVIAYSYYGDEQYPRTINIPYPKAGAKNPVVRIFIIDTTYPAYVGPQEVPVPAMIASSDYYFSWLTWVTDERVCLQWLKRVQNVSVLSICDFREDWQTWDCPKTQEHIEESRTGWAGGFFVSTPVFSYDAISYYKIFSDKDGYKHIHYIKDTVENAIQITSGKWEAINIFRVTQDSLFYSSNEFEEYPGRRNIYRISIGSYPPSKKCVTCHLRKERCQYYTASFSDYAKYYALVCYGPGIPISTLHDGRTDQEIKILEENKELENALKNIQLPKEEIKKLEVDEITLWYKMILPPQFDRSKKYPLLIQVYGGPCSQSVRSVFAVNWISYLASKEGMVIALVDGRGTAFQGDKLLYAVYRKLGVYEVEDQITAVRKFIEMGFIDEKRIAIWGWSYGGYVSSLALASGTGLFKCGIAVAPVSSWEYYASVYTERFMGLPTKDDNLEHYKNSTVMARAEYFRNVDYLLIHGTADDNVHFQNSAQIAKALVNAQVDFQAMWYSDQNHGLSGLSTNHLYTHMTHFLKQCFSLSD
Method: Human lung fibroblasts and CAFs (50,000 cells/well) were seeded in 96-Well round bottom plates (Greiner Bio-one, Cat #650101). Antibody dilutions were prepared using fluorescence-activated cell sorting (FACS) buffer, consisting of phosphate buffer saline (PBS, Lonza, Cat #BE17-517Q)+1% Bovine Serum Albumin (BSA, Roche, Cat #10735086001)+0.02% Sodium Azide (Bio-World, Cat #41920044-3). Plates were centrifuged, supernatant was removed, cells were resuspended in 50 μL of human Fc Block (BD, Cat #564220, diluted 1:100 in FACS buffer) and 50 μL of viability stain TO-PRO-3 Iodide (Thermo Fisher, Cat #T3605, diluted 1: 25,000 in FACS buffer), and incubated for 15 min at 4° C. Plates were washed three times with FACS buffer. Plates were centrifuged, supernatant was removed, cells were resuspended in 50 μL of antibody dilutions (concentration range 90-0.0005 μg/mL, three-fold dilution steps using FACS buffer) of BisG1-FAPα-FERL/DR4-FERR, BisG1-FAPα-FERL/b12-FERR, BisG1-b12-FERL/b12-FERR (top six concentrations only for CAFs culture) or IgG1-FAPα-FERL (top four concentrations only for CAFs culture) and incubated for 30 min at 4° C. Cells were washed three times with FACS buffer and resuspended in 50 μL of Fluorescein isothiocyanate (FITC)-labeled polyclonal antibody goat anti-mouse IgG1 (Jackson Immuno Research, Cat #109-096-097, diluted 1:100 in FACS buffer). After 30 min incubation at 4° C., cells were washed twice with FACS buffer and resuspended in FACS buffer. Antibody binding to viable cells (TO-PRO-3 negative) was analyzed by flow cytometry on a FACSCelesta™ (BD biosciences) and data were processed using FlowJo_v10.8.1 (FlowJo LLC). Geomean fluorescence intensity, gMFI, was determined and visualized using GraphPad Prism. Binding curves were analyzed using nonlinear regression analysis. The concentration (pg/mL) at which 50% of the maximal effect was observed (EC₅₀) was derived from the fitted curves.
Binding of FAPα-targeting monoclonal antibody clones, IgG1-FAPα-FEAL and IgG1-FAP5-FEAL, and bispecific antibodies carrying a binding arm derived from the two FAPα-binding clones (BisG1-FAPα-FEAL/b12-FEAR and BisG1-FAP5-FEAL/b12-FEAR) to human lung fibroblasts, which endogenously express FAPα, was compared and analyzed by flow cytometry.

[2] = target: T2, cynomolgus monkey DR4 with death domain deletion on ExpiCHO-S cells (cynomolgus monkey (Macaca fascicularis)); experiment: flow cytometry, ExpiCHO-S cells expressing cynomolgus monkey DR4, average ± SEM
T2 construct: also called cynomolgus DR4
T2 chain: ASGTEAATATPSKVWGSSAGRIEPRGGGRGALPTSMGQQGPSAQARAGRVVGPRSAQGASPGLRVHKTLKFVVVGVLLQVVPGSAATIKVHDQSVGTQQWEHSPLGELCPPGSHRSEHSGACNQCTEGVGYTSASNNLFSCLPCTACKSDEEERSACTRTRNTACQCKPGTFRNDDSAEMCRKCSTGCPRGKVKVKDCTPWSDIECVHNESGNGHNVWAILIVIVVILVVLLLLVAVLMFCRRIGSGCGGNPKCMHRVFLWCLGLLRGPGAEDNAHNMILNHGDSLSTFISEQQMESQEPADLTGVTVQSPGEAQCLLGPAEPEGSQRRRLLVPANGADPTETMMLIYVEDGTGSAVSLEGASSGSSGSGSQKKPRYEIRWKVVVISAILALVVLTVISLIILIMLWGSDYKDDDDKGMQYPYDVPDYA
Method: (§1) Binding of BisG1-FAPα-FERL/DR4-FERR, BisG1-DR4-FEAL/b12-FEAR and IgG1-DR4-FERR to DR4 of various species commonly used for nonclinical toxicology studies was assessed by flow cytometry using ExpiCHO-S cells transiently expressing DR4 from different animal species. In contrast to other species, rodents only express one DR which has highest homology with human DR5. Therefore, ExpiCHO-S cells transiently expressing rat and mouse DR protein were used instead. All DR constructs lack the intracellular DD to avoid apoptosis of transfected cells upon DR(4) activation. IgG1-b12 was used as negative control.

[3] = target: T2, cynomolgus monkey DR4 with death domain …; experiment: flow cytometry, ExpiCHO-S cells expressing cynomolgus monkey DR4, n = 2
Method: as §1

B1: BisG1-FAPα-FEAL/b12-FEAR (bispecific antibody, human IgG1, kappa)
heavy 1: EVQLLESGGGLVQPGGSPRLSCEASGFTFSSYALSWVRQAPGKGLEWVSAISGSGGGRYYADSVKGRFTISRDNSKNTLFLQMNSLRAEDTAVYYCAKEGYSSSGTYWDHWGQGTLVTVSSASTKGPSVFPLAPSSKSTSGGTAALGCLVKDYFPEPVTVSWNSGALTSGVHTFPAVLQSSGLYSLSSVVTVPSSSLGTQTYICNVNHKPSNTKVDKRVEPKSCDKTHTCPPCPAPEFEGGPSVFLFPPKPKDTLMISRTPEVTCVVVAVSHEDPEVKFNWYVDGVEVHNAKTKPREEQYNSTYRVVSVLTVLHQDWLNGKEYKCKVSNKALPAPIEKTISKAKGQPREPQVYTLPPSREEMTKNQVSLTCLVKGFYPSDIAVEWESNGQPENNYKTTPPVLDSDGSFLLYSKLTVDKSRWQQGNVFSCSVMHEALHNHYTQKSLSLSPG
light 1: AIQMTQSPSSVSASVGDRVTITCRASQGVSSWLAWYQQKPGRAPKLLIYVASTLQSGVPSRFSGSGSGTDFTLTINSLQPEDFATYYCQQANSFPPTFGQGTRLEMKRTVAAPSVFIFPPSDEQLKSGTASVVCLLNNFYPREAKVQWKVDNALQSGNSQESVTEQDSKDSTYSLSSTLTLSKADYEKHKVYACEVTHQGLSSPVTKSFNRGEC
heavy 2: QVQLVQSGAEVKKPGASVKVSCQASGYRFSNFVIHWVRQAPGQRFEWMGWINPYNGNKEFSAKFQDRVTFTADTSANTAYMELRSLRSADTAVYYCARVGPYSWDDSPQDNYYMDVWGKGTTVIVSSASTKGPSVFPLAPSSKSTSGGTAALGCLVKDYFPEPVTVSWNSGALTSGVHTFPAVLQSSGLYSLSSVVTVPSSSLGTQTYICNVNHKPSNTKVDKRVEPKSCDKTHTCPPCPAPEFEGGPSVFLFPPKPKDTLMISRTPEVTCVVVAVSHEDPEVKFNWYVDGVEVHNAKTKPREEQYNSTYRVVSVLTVLHQDWLNGKEYKCKVSNKALPAPIEKTISKAKGQPREPQVYTLPPSREEMTKNQVSLTCLVKGFYPSDIAVEWESNGQPENNYKTTPPVLDSDGSFFLYSRLTVDKSRWQQGNVFSCSVMHEALHNHYTQKSLSLSPG
light 2: EIVLTQSPGTLSLSPGERATFSCRSSHSIRSRRVAWYQHKPGQAPRLVIHGVSNRASGISDRFSGSGSGTDFTLTITRVEPEDFALYYCQVYGASSYTFGQGTKLERKRTVAAPSVFIFPPSDEQLKSGTASVVCLLNNFYPREAKVQWKVDNALQSGNSQESVTEQDSKDSTYSLSSTLTLSKADYEKHKVYACEVTHQGLSSPVTKSFNRGEC
notes: Fab-arm exchange of IgG1-FAPα-FEAL and IgG1-b12-FEAR
[1]
  EC50: 0.048 mg/L

B2: IgG1-DR4-FERR (antibody, V domains shown)
VH: QVQLQESGPGLVKPSGTLSLTCAVSGGSISSYSWWSWIRQPPGKGLEWIGELYHSGSTNYNPSLKSRVTISVDKSKNQFSLKLRSVTAADTAVYYCVRGVATIDYWGQGTLVTVSS
VL: QSALTQPPSASGSPGQSVTISCTGTSSDVGGYNFVSWYQQDPGKAPKLLIYEVTKRPSGVPDRFSGSKSGNTASLTVSGLQAEDEADYYCSSYAGSNNVMFGGGTKLTVLG
notes: Bivalent monoclonal IgG1 lambda
[2]
  EC50: 1.84 mg/L
[3]
  EC50: 1.94 mg/L
